Results from patent US20230340123A1 (published 2023).

What was measured:
human BTLA(ECD)-HIS = target: T1, human BTLA(ECD)-HIS (human, UniProt Q7Z6A9 31-157); experiment: ELISA, BTLA(ECD)-HIS coated, chemiluminescence (RLU)
T1 construct: extracellular domain; not shown: HIS tag

cynomolgus BTLA(ECD)-HIS = target: T2, cynomolgus BTLA(ECD)-HIS (cynomolgus, UniProt A0A2K5W7M7 31-157); experiment: as above
T2 construct: extracellular domain; also called Cyno BTLA; not shown: HIS tag

[1] = target: T3, human BTLA expressed on HEK-293 cells (human, UniProt Q7Z6A9 31-289); experiment: flow cytometry (MFI) on HEK 293 cells expressing BTLA
T3 construct: whole, on cells

[2] = target: T4, cynomolgus BTLA expressed on HEK-293 cells (cynomolgus, UniProt A0A2K5W7M7 31-289); experiment: as above
T4 construct: whole, on cells; also called Cyno BTLA
T4 sequence (A0A2K5W7M7 entry or part of it): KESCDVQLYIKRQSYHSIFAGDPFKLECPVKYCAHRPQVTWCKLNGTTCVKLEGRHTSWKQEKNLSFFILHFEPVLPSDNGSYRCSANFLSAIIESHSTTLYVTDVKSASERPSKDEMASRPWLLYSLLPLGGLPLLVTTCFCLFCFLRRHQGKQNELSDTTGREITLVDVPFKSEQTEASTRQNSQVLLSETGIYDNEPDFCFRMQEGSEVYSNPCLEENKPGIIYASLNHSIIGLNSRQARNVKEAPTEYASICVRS

human BTLA-human Fc = target: T5, human BTLA-human Fc (human, UniProt Q7Z6A9 31-151, limits assumed); experiment: blocking ELISA: BTLA-human Fc binding to coated human HVEM-ratIgG2a
T5 construct: not shown: human Fc

cynoBTLA-human Fc = target: T6, cynoBTLA-human Fc (cynomolgus, UniProt A0A2K5W7M7 31-151); experiment: blocking ELISA: cynoBTLA-human Fc binding to coated human HVEM-ratIgG2a
T6 construct: not shown: human Fc
T6 sequence (A0A2K5W7M7 entry or part of it): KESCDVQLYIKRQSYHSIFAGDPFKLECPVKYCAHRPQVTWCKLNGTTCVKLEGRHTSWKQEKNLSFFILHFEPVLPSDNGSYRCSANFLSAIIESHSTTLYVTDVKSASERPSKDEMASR

recombinant human BTLA = recombinant human BTLA (human, UniProt Q7Z6A9 31-151, limits assumed); experiment: Bio-Layer Interferometry (Octet), antibody captured by anti-human-Fc, BTLA in solution, 1:1 model
[3] = target: T7, cynomolgus BTLA (analyte in Bio-Layer Interferometry) (cynomolgus, UniProt A0A2K5W7M7 31-151); experiment: as above
T7 construct: also called Cyno BTLA

T2 sequence (A0A2K5W7M7 entry or part of it): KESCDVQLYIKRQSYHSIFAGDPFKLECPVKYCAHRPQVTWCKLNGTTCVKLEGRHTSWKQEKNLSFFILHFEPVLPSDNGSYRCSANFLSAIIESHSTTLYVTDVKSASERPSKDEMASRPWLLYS

B1: anti-BTLA antibody 15-C19A (antibody, V domains shown)
VH: QVQLQESGPGLVKPSETLSLTCTVSGGSISSYYWSWIRQPPGKGLEWIGYISYSGSTNYNPSLKSRVTISADTSKNQFSLKLSSVTAADTAVYYCARDFYYGMDVWGQGTTVTVSS
VL: AIQLTQSPSSLSASVGDRVTITCRASQGISSALAWYQQKPGKAPKLLIYDASSLESGVPSRFSGSGSGTDFTLTISSLQPEDFATYYCHQFDYYPTFGGGTKVEIK
- EC50 (human BTLA(ECD)-HIS): 0.8 nM
- EC50 (cynomolgus BTLA(ECD)-HIS): 1.4 nM
- EC50 [1]: 5.5 nM
- EC50 [2]: 4.4 nM
- IC50 (human BTLA-human Fc): 3.5 nM
- IC50 (cynoBTLA-human Fc): 2.4 nM
- Kd (recombinant human BTLA): 144 nM
- Kd [3]: 0.1 nM
